Assay results reported in publication PMC11555707, “Histone deacetylase 7 activates 6-phosphogluconate dehydrogenase via an enzyme-independent mechanism that involves the N-terminal protein-protein interaction domain” (Biochemical Journal, 2024).

Biological target: the molecule itself
Test: cross-linking; lysates of transfected HEK293 cells (50 mM HEPES, 150 mM NaCl, 0.5% Triton X-100) incubated with 2 mM disuccinimidyl suberate (DSS) for 30 min at room temperature, quenched with 50 mM Tris-HCl; immunoblot with anti-Flag; 6PGD alone or with HDAC7, N-HDAC7, C-HDAC7 or SOX7

B1: 6-phosphogluconate dehydrogenase (6PGD), Flag-tagged (enzyme, mouse, UniProt Q9DCD0 1-483, looked up)
chain: MAQADIALIGLAVMGQNLILNMNDHGFVVCAFNRTVSKVDDFLANEAKGTKVVGAQSLKDMVSKLKKPRRVILLVKAGQAVDDFIEKLVPLLDTGDIIIDGGNSEYRDTTRRCRDLKAKGILFVGSGVSGGEEGARYGPSLMPGGNKEAWPHIKAIFQAIAAKVGTGEPCCDWVGDEGAGHFVKMVHNGIEYGDMQLICEAYHLMKDVLGMRHEEMAQAFEEWNKTELDSFLIEITANILKYRDTDGKELLPKIRDSAGQKGTGKWTAISALEYGMPVTLIGEAVFARCLSSLKEERVQASQKLKGPKVVQLEGSKKSFLEDIRKALYASKIISYAQGFMLLRQAATEFGWTLNYGGIALMWRGGCIIRSVFLGKIKDAFERNPELQNLLLDDFFKSAVDNCQDSWRRVISTGVQAGIPMPCFTTALSFYDGYRHEMLPANLIQAQRDYFGAHTYELLTKPGEFIHTNWTGHGGSVSSSSYNA
notes: mouse 6-phosphogluconate dehydrogenase (6PGD); A shorter ~40 kDa form (6PGD-s), also detected by anti-Flag, arises in the same cells; also called full-length 6PGD; source: HEK293, transfected (pCMV-based construct), in lysate
  stoichiometry N: 2
